Where a chain is given by its changes, count along the chain named.
Columns and labels:
P6 = test: ELISA, unpurified hybridoma supernatant on peptide
P6-Hpu [1] = target: T1, P6-Hpu; test: SPR, Biacore T200, peptide captured, Fab flowed
T1 construct: Synthetic peptide

P6-Hpu [2] = target: T1, P6-Hpu; test: SPR, ratio of KD values
endogenous eIF5A [3] = target: T2, endogenous eIF5A (human, UniProt P63241 2-154); test: immunoprecipitation from 293T cell lysate (diluted 1, 2, 4, 8-fold) with antibody on protein A beads, SDS-PAGE, Coomassie blue
T2 construct: also called endogenous eIF5A protein of 293T cells
T2 sequence (P63241 2-154 limits assumed): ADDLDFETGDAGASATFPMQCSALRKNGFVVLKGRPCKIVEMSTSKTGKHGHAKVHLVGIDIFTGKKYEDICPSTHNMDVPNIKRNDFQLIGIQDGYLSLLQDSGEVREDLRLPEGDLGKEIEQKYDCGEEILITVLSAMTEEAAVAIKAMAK

P6-Hpu [4] = target: T1, P6-Hpu; test: ELISA, unpurified hybridoma supernatant on peptide
endogenous eIF5A [5] = target: T2, endogenous eIF5A; test: Western blot of lysates of 293 cells transfected with DHS-DOHH and flag-eIF5A WT or K50A
[6] = target: T3, Flag-tagged human wild-type eIF5A (human, UniProt P63241 1-154); test: as above
T3 construct: also called transfected wild-type eIF5A; WT eIF5A
T3 sequence (P63241 whole entry): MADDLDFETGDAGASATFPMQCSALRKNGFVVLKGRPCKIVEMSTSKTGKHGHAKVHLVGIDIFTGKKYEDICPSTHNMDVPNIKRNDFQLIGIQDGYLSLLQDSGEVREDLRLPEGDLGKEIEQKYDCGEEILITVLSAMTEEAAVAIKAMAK

[7] = target: T4, Flag-tagged human K50A eIF5A (human, UniProt P63241 1-154); test: as above
T4 construct: also called K50A variant; K50A mutant eIF5A
T4 sequence (P63241 whole entry K50A): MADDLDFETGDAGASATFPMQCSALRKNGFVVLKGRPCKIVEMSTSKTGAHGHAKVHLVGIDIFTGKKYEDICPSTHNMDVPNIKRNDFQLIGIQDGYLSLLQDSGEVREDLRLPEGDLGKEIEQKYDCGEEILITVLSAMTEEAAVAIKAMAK

B1: mAbHpu24 (antibody, V domains shown)
VH: QEQLKESGGRLVAPGTPLTLTCTVSGFDISDYAMIWVRQAPGKGLEWIGIIYGGSNKLAYAKWAKGRFTISRTSTTVDLKITSPTTEDTATYFCARGYGSMDGYDRLNLWGQGTLVTVSS
VL: AAVLTQTPSPVSAAVGGTVTISCQSSETVYRGDWLSWFQKKPGQPPKLLIYDASYLASGVSSRFSGSGSGTHFTLTISGVQCDDAATYYCLGGYYDDADDTFGGGTEVVVK
notes: also called antibody Hpu24
B1: no binding (P6).

B2: FabHpu24 (Fab, V domains shown)
VH: B1 VH
VL: AAVLTQTPSPVSAAVGGTVTISCQSSETVYRGDWLSWFQKKPGQPPKLLIYDASYLASGVSSRFSGSGSGTHFTLTISGVQCDDAATYYCLGGYYDDADDTFGGGTEVVVKG
B2 gave a Kd (P6-Hpu [1]) of 176 nM.

B3: FabHpu24.B (Fab, V domains shown)
VH: B1 VH with G54V, S55I, K57D
VL: B2 VL with Q24R, S26R, E27Q, T28R, R31L, Y55F, L56R, A57G, S58D
In the case of B3, the “Fold improvement in KD over parent FabHpu24” value (P6-Hpu [2]) is reported as 2.9 fold and the Kd (P6-Hpu [1]) is reported as 61 nM.

B4: mAbHpu24.B (antibody, V domains shown)
VH: B1 VH with G54V, S55I, K57D
VL: B1 VL with Q24R, S26R, E27Q, T28R, R31L, Y55F, L56R, A57G, S58D
notes: also called antibody Hpu24.B
B4: binds (endogenous eIF5A [3]).

B5: mAbHpu91 (antibody, V domains shown)
VH: QSVEESGGRLVTPGTPLTLTCTVSAFSLSTYTINWVRQAPGKGLEWIGDIWSDGNTYYANWAKGRFTISKTSTTVDLKITSPTTEDTATYFCARDSWDTSIYYGLDLWGQGTLVTVSS
VL: AIKMTQTPSSVSAAVGGTVTINCQASEDIKRYLAWYQQKPGQPPKLLIYAASKLASGVSSRFTGSGSGTEYTLTISGVQCDDAATYYCQQGYTSTNVNNAFGGGTEVVVK
notes: also called antibody Hpu91
B5: binds (P6-Hpu [4]); no binding (P6); binds (endogenous eIF5A [5]). B5: binds [6]; no binding [7].

B6: FabHpu98.61 (Fab, V domains shown)
VH: B5 VH with F26C, S29Y, T30H, Y31C, I33M, W51Y, S52T, T99A, I101S
VL: AIKMTQTPSSVSAAVGGTVTINCQASEDIKRYLAWYQQKPGQPPKLLIYAASKLASGVSSRFKGSGSGTEYTLTISGVQCDDAATYYCQQGYTSSNVNNAFGGGTEVVVKG
B6 was tested, and the “Fold improvement in KD over parent FabHpu98” value (P6-Hpu [2]) was greater than 4.4 fold and the Kd (P6-Hpu [1]) was 229 nM.

Source: patent US20210072250A1 (Genentech, published 2021)
